In the nanobody polyreactivity screen of Harvey et al. (2022):

Assay: yeast display, Sf9 membrane polyspecificity reagent, FACS + sequencing; frameworks hold sequencing errors
In short: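 Galactose induction of a Saccharomyces cerevisiae BJ5465 synthetic nanobody display library ran 36–48 hours. The cells were then stained for 1 hour at 4 °C with 10% biotinylated, detergent-solubilized Sf9 membrane reagent, pulled down on streptavidin microbeads and FACS-sorted into low and high (top ~1%) gates on expression and reagent-binding fluorescence. Labels for polyreactivity follow the gate of origin.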

Sequence	polyreactivity (PSR sort gate)
QVQLVESGGGLVQAGGSLLLSCAASGSIFQQYAMGGSRQAPGKERDLVAAISWGDGSTYYADSVKGRFTISRDNAKNTVYLQMNSLKPEDTAVYYCNAYASAPLWSLEDDYWGKGTQVTVSS	low polyreactivity
QVQLVESGGGLVQAGGSLLLSCAASGSLFYRYAMGWYRQAPGKERELVAAISWGGGRTYYADSVKGRFTISRDNAKNTVYLQMNRLKPEDTAVYSCNREKYVRWIREDYDYWGQGTQVTVSS	high polyreactivity
QVQLVESGGGLVQAGGSLLLSCAASGSTLGRYAMGWYRQAPGKERELVASITWSDDSTYYADSVKGRFTISRDNAKNTVYLQMNSLKPEDTAVYYCAAAGNLYTYRFYYWGQGTQVTVSS	low polyreactivity
QVQLVESGGGLVQAGGSLLLSCAASGSTYKYAMGWYRQAPGKERELVAVISSGGSTDDADSVKGRFTISRDNAKNTVYLQMNSLKPEDTAVYYCAADSGFVSIGSYYWGLGTQVTVSS	low polyreactivity
QVQLVESGGGLVQAGGSLLLSCAASGYTFKSYVMGWYRQAPGKERELVAAITSIGGSTYYADSVKGRFTISRDNAKNNVYLQMNSLKPEDTALYYCAKYPGISGYNYWGQGTQVTVSS	high polyreactivity
QVQLVESGGGLVQAGGSLLLSCAATGITFVPNAMGWYRQAPGKERELVDAISTRGGSTYYADSVKGRFTISRDNAKNTVYLQMNSLKPEDTAVYYCNALITGRWFDYWGQGTQVTVSS	high polyreactivity
QVQLVESGGGLVQAGGSLLLSSADSGSTFNYNAMGWYRQSHGKERELVAVINSGGSTYYADSVKGRFTISRDNAKNTVYLQMNSLKPEDTAVYYCAAATYRQQWHYYWGQGTQGTVSS	high polyreactivity
QVQLVESGGGLVQAGGSLPLSCAASGATFTFYTMRSYRQAPGKERELVATISWRGGNTYYADSVKGRFTISRDNAKNTVYLQMNSLKPEDTAVYYCNAAPYRRGYGFREYDYWGQGTQVTVSS	high polyreactivity
QVQLVESGGGLVQAGGSLPLSCAASGFTFDKYAMGWYRQAPGKERELVAAISNSGGRTYYADSVKGRFTISRDNAKKTVYLQMNSLKPEDTAVYYCAAKFRYQYVRVAREYYYWGQGTQVTVSS	high polyreactivity
QVQLVESGGGLVQAGGSLPLSCAASGIIFSYNAKGWDRQAPGKERELDAAIRENGGSTYYADSVKGRFTISRDNAKNTVYLQMNSLKPEDTAGYYCAVATSYYAGYEYDYWGQGTQVTVSS	low polyreactivity
QVQLVESGGGLVQAGGSLPLSCAASGRIYDSYAKGWYIQAPGKERELVAAISFGGDTYYADSVKGRFTISRDNAKNTVYLQMNSLKPEDTAVYYCAKDNPAALFDSWGQGTQVTVSS	low polyreactivity
QVQLVESGGGLVQAGGSLPLSCAASGRTFDSYTMGWYRQAPGKERELVAAIRSSGGRTYADSVKGRFTISRDNAKNTVYLQMNSLKPEDTAVYYCAAARSYWAKYYYWGQGTQVTVSS	high polyreactivity
QVQLVESGGGLVQAGGSLPLSCAASGRTFPFNALGWYRQAPGKEREFVAAISVGGGSTYADSVKGRFTISRDNAKNTFYLQMNSLKPEDTAVYYCAAAYTKLYYYWGQGTQVTVSS	low polyreactivity
QVQLVESGGGLVQAGGSLPLSCAASGSIFTYYAMGSYRQAPGKEREFVAAISRRGGSTYYADSVKGRFTISRDNAKNTVYLQMNSLKPEDTAVYYCNARDTGSSLYYWGQGTQVTVSS	high polyreactivity
QVQLVESGGGLVQAGGSLPLSCAASGSIFWRNAMGWYRQAPGKEREFVATITWSGDSTYYADSVKGRFTISRDNAKNTVYLQMNSLKPEDTAVYYYAAAYSNWHPGLDYWGQGTPVTVSS	low polyreactivity
QVQLVESGGGLVQAGGSLPLSCAASGSTFNKYTMGWSRQPPGKERELVAAITSGDSTYYADSVKGRFTISRDNAKNTVYLQMNSLKPDDTAVYYCAKSLRAYRHVIYGKPFYSWGQGTQVTVSS	low polyreactivity
QVQLVESGGGLVQAGGSLPLSCAASGYTFQRYAMGWYRQAPGKERELVAAITGAGGSTYYADSVKGRFTISRDNAKNTVYLQMNSLKPEDTAVYYCAARQYRRVIKHGYNYWGQGTQVTVSS	high polyreactivity
QVQLVESGGGLVQAGGSLRFSCAACGMTIWYYGMGSYRQAPGKERELLAAISKTGGRTYDADSVKGRFTISRDNAKNTVYLQMNRLKPEDTAVYNCNARYLLVSRYWENDYWGQATQVTVSS	low polyreactivity
QVQLVESGGGLVQAGGSLRFSCAASGFIFSFYAMGWYRQAPGKERELVAAISSSGSTNYADSVKGRFTISRDNAKNTVYLQMNSLKPEDTAVYYCAARWHRSRAGYYYWGQGTQVTVSS	high polyreactivity
QVQLVESGGGLVQAGGSLRFSCAASGFTFTVYAMGWYRQAPGKGRELVAAISWNGGSTYYADSVKGRFTISRDNATNTDYLQRNSLKPEDTAVYYCNKYYYRGVRYYRDHDYWGQGTQVTVSS	high polyreactivity
QVQLVESGGGLVQAGGSLRFSCAASGGTFSGYAMGWYRQAPGKERELVAAITSGGGTTYADSVKGRFTISRDNAKNTVYLQMNSLKPEDTAVYYCAKEGHVVIFYIGQYELDYWGQGTQVTVSS	low polyreactivity
